{
  "source": "paper PMC7402102",
  "key": {"[1]": {"tested_on": "CC(C)(COP(=O)(O)OP(=O)(O)OC[C@H]1O[C@@H](n2cnc3c(N)ncnc32)[C@H](O)[C@@H]1OP(=O)(O)O)[C@@H](O)C(=O)NCCC(=O)NCCSC(=O)CCC(=O)O", "assay": "purified protein", "settings": "acetoacetate co-substrate, pH 8.6, 37 °C, 15 mM MgCl2"}, "CC(=O)CC(=O)O": {"tested_on": "CC(=O)CC(=O)O", "assay": "purified protein", "settings": "1 mM succinyl-CoA, pH 8.6, 37 °C, 15 mM MgCl2"}},
  "data": [
    {"substance": "HsSCOT (Homo sapiens)", "values": [
      {"measurement": "Km", "setting": "[1]", "value": 971, "unit": "µM"},
      {"measurement": "kcat", "setting": "[1]", "value": 190, "unit": "s⁻¹"},
      {"measurement": "Km", "setting": "CC(=O)CC(=O)O", "value": 765, "unit": "µM"},
      {"measurement": "kcat", "setting": "CC(=O)CC(=O)O", "value": 105, "unit": "s⁻¹"}
    ]}
  ]
}
